In article PMC3565348, “Modeling of Anopheles minimus Mosquito NADPH-Cytochrome P450 Oxidoreductase (CYPOR) and Mutagenesis Analysis” (International Journal of Molecular Sciences, 2013):

Key:
[1] = system: NC(=O)C1=CN([C@@H]2O[C@H](COP(=O)(O)OP(=O)(O)OC[C@H]3O[C@@H](n4cnc5c(N)ncnc54)[C@H](OP(=O)(O)O)[C@@H]3O)[C@@H](O)[C@H]2O)C=CC1; test: purified protein; assay type: biochemical, Anopheles minimus; details: 0.1 M Tris-Cl pH 7.5, 25 °C, co-substrate cytochrome c, extra flavins added
Δ55AnCYPOR = target: T1, Δ55AnCYPOR (Anopheles minimus, UniProt A4ZIT2); test: flavin content of purified protein, fluorometric; assay type: binding; details: co-purified flavin; no affinity constant
T1 construct: soluble form lacking the N-terminal membrane region (Δ55), pET28a vector, expressed in E. coli BL21 (DE3), purified
T1 sequence (A4ZIT2 56-679): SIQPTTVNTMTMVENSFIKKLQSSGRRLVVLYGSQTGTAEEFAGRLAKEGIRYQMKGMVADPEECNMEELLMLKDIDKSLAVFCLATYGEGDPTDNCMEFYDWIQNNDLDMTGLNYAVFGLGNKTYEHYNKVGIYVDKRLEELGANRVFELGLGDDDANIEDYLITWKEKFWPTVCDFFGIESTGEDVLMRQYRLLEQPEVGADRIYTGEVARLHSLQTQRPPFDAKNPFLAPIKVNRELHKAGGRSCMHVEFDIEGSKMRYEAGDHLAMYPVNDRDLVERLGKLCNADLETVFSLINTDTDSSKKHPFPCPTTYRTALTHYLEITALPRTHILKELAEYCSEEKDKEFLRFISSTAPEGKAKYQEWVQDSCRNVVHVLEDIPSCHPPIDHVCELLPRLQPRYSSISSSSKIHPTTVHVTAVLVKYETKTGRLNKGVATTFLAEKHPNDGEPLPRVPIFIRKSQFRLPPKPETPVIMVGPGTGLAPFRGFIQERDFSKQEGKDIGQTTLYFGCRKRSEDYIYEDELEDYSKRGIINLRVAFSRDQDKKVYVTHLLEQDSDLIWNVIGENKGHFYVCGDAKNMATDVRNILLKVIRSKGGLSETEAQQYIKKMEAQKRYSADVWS
Description: flavin content of purified protein, fluorometric on Δ55AnCYPOR

[2] = system: T2, CYP6AA3 reconstituted with flAnCYPOR; test: benzyloxyresorufin O-dealkylation, fluorescence of resorufin, microsomes + purified CYPOR; assay type: biochemical, Anopheles minimus; details: 50 mM Tris-HCl pH 7.5; wild-type flAnCYPOR; apparent Km; read-out: CYP3AA3-mediated BROD activity (pmole resorufin produced/min/pmol P450) ^a / Km
T2 construct: CYP6AA3 in Sf9 baculovirus microsomes; with NADPH--cytochrome P450 reductase

[3] = system: T3, CYP6AA3 reconstituted with rat CYPOR; test: as above; assay type: biochemical, Anopheles minimus; details: 50 mM Tris-HCl pH 7.5; rat CYPOR as redox partner; apparent Km; read-out: CYP3AA3-mediated BROD activity (pmole resorufin produced/min/pmol P450) ^a / Km
T3 construct: CYP6AA3 in Sf9 baculovirus microsomes; purified rat CYPOR (pIN-rat CYPOR, E. coli C43 (DE3), Ni-NTA) added, ratio 3:1; with NADPH--cytochrome P450 reductase (Rattus norvegicus)

purified protein = substrate: NC(=O)C1=CN([C@@H]2O[C@H](COP(=O)(O)OP(=O)(O)OC[C@H]3O[C@@H](n4cnc5c(N)ncnc54)[C@H](OP(=O)(O)O)[C@@H]3O)[C@@H](O)[C@H]2O)C=CC1; test: purified protein; details: 0.1 M Tris-Cl pH 7.5, 25 °C, co-substrate cytochrome c, extra flavins added

Work on “Δ55AnCYPOR (Anopheles minimus; L219F/L86F/W678H)” yielded a Km [1] of 1.91 ± 0.44 µM.

For `Cc1cc2nc3c(=O)[nH]c(=O)nc-3n(C[C@H](O)[C@H](O)[C@H](O)COP(=O)(O)O)c2cc1C` [FMN], the “FMN ^a” value (Δ55AnCYPOR) was 0.52 ± 0.01 mol/mol.

With “Δ55AnCYPOR (Anopheles minimus; C427R/L219F/L86F)” the Km [1] was 7.02 ± 1.75 µM.

`Cc1cc2nc3c(=O)[nH]c(=O)nc-3n(C[C@H](O)[C@H](O)[C@H](O)COP(=O)(O)OP(=O)(O)OC[C@H]3O[C@@H](n4cnc5c(N)ncnc54)[C@H](O)[C@@H]3O)c2cc1C` [FAD] was tested, and the “FAD ^a” value (Δ55AnCYPOR) was 0.64 ± 0.03 mol/mol.

Work on `O=c1ccc2nc3ccc(OCc4ccccc4)cc3oc-2c1` [benzyloxyresorufin] yielded a Km [2] of 1.9 ± 0.61 µM and a Km [3] of 1.69 ± 0.24 µM.

“Δ55AnCYPOR (Anopheles minimus; L219F/L86F/W678A)” showed a Km [1] of 3.34 ± 0.83 µM.

Work on “Δ55AnCYPOR (Anopheles minimus; L219F/L86F)” yielded a Km [1] of 6.49 ± 1.19 µM.

B1: Δ55AnCYPOR (Anopheles minimus) (protein)
chain: T1 sequence (A4ZIT2 56-679)
B1 was tested, and the Km (purified protein) was 9.61 ± 0.30 µM.
